Source: patent publication US11844843 (DYNE THERAPEUTICS, dated 2023)
Substitutions are numbered along the chain they refer to. Names and notes keep the numbering of the source.

T1: recombinant cynomolgus monkey (Macaca fascicularis) TfR1 (cynomolgus monkey (Macaca fascicularis), UniProt Q5RDH6 87-760 (Pongo abelii entry), limits assumed)
T1 construct: Recombinant protein; also called cTfR1; cyTfR1
T1 chain: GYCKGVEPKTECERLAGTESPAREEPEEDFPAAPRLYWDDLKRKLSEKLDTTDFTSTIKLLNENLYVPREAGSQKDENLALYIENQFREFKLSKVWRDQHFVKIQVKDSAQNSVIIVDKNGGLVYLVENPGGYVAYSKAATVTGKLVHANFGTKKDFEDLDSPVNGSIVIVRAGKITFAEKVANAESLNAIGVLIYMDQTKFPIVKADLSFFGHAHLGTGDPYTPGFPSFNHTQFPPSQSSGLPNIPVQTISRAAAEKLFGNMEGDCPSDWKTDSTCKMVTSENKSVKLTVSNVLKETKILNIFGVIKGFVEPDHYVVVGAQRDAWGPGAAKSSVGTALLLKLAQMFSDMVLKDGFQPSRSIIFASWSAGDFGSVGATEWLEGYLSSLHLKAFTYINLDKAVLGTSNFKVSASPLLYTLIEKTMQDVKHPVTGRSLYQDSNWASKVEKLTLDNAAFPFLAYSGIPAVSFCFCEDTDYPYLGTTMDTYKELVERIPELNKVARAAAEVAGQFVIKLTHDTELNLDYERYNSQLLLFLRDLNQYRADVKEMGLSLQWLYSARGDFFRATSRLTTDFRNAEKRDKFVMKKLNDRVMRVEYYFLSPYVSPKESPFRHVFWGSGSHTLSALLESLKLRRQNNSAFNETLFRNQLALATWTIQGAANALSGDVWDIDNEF

B1: 3-A4 mouse monoclonal anti-TfR antibody (antibody, V domains shown)
VH: EVQLQQSGAELVRPGASVKLSCTASGFNIKDDYMYWVKQRPEQGLEWIGWIDPENGDTEYASKFQDKATVTADTSSNTAYLQLSSLTSEDTAVYYCTLWLRRGLDYWGQGTSVTVSS
VL: DIVMTQAAPSVPVTPGESVSISCRSSKSLLHSNGYTYLFWFLQRPGQSPQLLIYRMSNLASGVPDRFSGSGSGTAFTLRISRVEAEDVGVYYCMQHLEYPFTFGGGTKLEIK
notes: Mouse monoclonal IgG; also called 3-A04
B2: 5-H12 mouse monoclonal anti-TfR antibody (antibody, V domains shown)
VH: QIQLQQSGPELVRPGASVKISCKASGYSFTDYCINWVNQRPGQGLEWIGWIYPGSGNTRYSERFKGKATLTVDTSSNTAYMQLSSLTSEDSAVYFCAREDYYPYHGMDYWGQGTSVTVSS
VL: DIVLTQSPTSLAVSLGQRATISCRASESVDGYDNSFMHWYQQKPGQPPKLLIFRASNLESGIPARFSGSGSRTDFTLTINPVEAADVATYYCQQSSEDPWTFGGGTKLEIK
notes: Mouse monoclonal IgG
B3: conjugate of humanized anti-TfR Fab 3A4 VH3 (N54S)/Vκ4 with DMPK-targeting oligonucleotide ASO300 (Fab, V domains shown)
VH: EVQLVQSGSELKKPGASVKVSCTASGFNIKDDYMYWVRQPPGKGLEWIGWIDPESGDTEYASKFQDRVTVTADTSTNTAYMELSSLRSEDTAVYYCTLWLRRGLDYWGQGTLVTVSS
VL: DIVMTQSPLSLPVTPGEPASISCRSSKSLLHSNGYTYLFWFQQRPGQSPRLLIYRMSNLASGVPDRFSGSGSGTDFTLKISRVEAEDVGVYYCMQHLEYPFTFGGGTKVEIKR
modifications: oligonucleotide ASO300 conjugated to the Fab via linker; residue and chain not stated
notes: also called 3A4 (VH3-N54S/Vk4) conjugate
B4: conjugate of humanized anti-TfR Fab 3A4 VH3 (N54T)/Vκ4 with DMPK-targeting oligonucleotide ASO300 (Fab, V domains shown)
VH: B3 VH with S55T
VL: B3 VL
modifications: oligonucleotide ASO300 conjugated to the Fab via linker; residue and chain not stated
notes: also called 3A4 (VH3-N54T/Vk4) conjugate
B5: conjugate of humanized anti-TfR Fab 3M12 VH4/Vκ3 with DMPK-targeting oligonucleotide ASO300 (Fab, V domains shown)
VH: QVQLQESGPGLVKPSQTLSLTCTVTGYSITSGYYWNWIRQPPGKGLEWIGYITFDGANNYNPSLKNRVSISRDTSKNQFSLKLSSVTAEDTATYYCTRSSYDYDVLDYWGQGTTVTVSS
VL: DIQMTQSPSSLSASVGDRVTITCRASQDISNFLNWYQQKPGQPVKLLIYYTSRLHSGVPSRFSGSGSGTDFTLTISSLQPEDFATYYCQQGHTLPYTFGQGTKLEIKR
modifications: oligonucleotide ASO300 conjugated to the Fab via linker; residue and chain not stated
notes: also called 3M12 (VH4/Vk3) conjugate
B6: conjugate of humanized anti-TfR Fab 3M12 VH3/Vκ2 with DMPK-targeting oligonucleotide ASO300 (Fab, V domains shown)
VH: B5 VH with T23S, I49M
VL: B5 VL with Y87F
modifications: oligonucleotide ASO300 conjugated to the Fab via linker; residue and chain not stated
notes: also called 3M12 (VH3/Vk2) conjugate
B7: 3-M12 mouse monoclonal anti-TfR antibody (antibody, V domains shown)
VH: DVQLQESGPGLVKPSQSLSLTCSVTGYSITSGYYWNWIRQFPGNKLEWMGYITFDGANNYNPSLKNRISITRDTSKNQFFLKLTSVTTEDTATYYCTRSSYDYDVLDYWGQGTTLTVSS
VL: DIQMTQTTSSLSASLGDRVTISCRASQDISNFLNWYQQRPDGTVKLLIYYTSRLHSGVPSRFSGSGSGTDFSLTVSNLEQEDIATYFCQQGHTLPYTFGGGTKLEIK
notes: Mouse monoclonal IgG

What was measured:
[1] = molecular target: T2, recombinant human TfR1 (transferrin receptor protein 1) (human, UniProt P02786 89-760); assay: Carterra LSA SPR, 25 C; IgG captured, hTfR1 as analyte; 1:1 fit
T2 construct: Recombinant protein in SPR and ELISA; they were assigned to this molecule; also called hTfR1; huTfR1
Description: Selected anti-TfR1 antibodies were tested for their binding affinity to human TfR1 for measurement of Ka (association rate constant). Kd (dissociation rate constant), and K_D (affinity). […] The binding experiment was performed on Carterra LSA at 25° C. An anti-mouse IgG and anti-human IgG antibody "lawn" was prepared on a HC30M chip by amine coupling. The IgGs were captured on the chip. Dilution series of hTfR1, cyTfR1, and hTfR2 were injected to the chip for binding (starting from 1000 nM, 1:3 dilution, 8 concentrations).
Binding data were referenced by subtracting the responses from a buffer analyte injection and globally fitting to a 1:1 Langmuir binding model for estimate of Ka (association rate constant), Kd (dissociation rate constant), and K_D (affinity) using the Carterra™ Kinetics software, 5-6 concentrations were used for curve fitting.

[2] = molecular target: T2, recombinant human TfR1 (transferrin …); assay: Avg KD, antibody alone; method not stated in Table 11
[3] = molecular target: T1, recombinant cynomolgus monkey (Macaca …); assay: as above
[4] = molecular target: T2, recombinant human TfR1 (transferrin …); assay: ELISA, recombinant TfR1 coated, Fab-ASO300 conjugate (row 'Conjugate binding affinity ELISA')
[5] = molecular target: T1, recombinant cynomolgus monkey (Macaca …); assay: as above
[6] = molecular target: T2, recombinant human TfR1 (transferrin …); assay: Table 14, Fab-ASO300 conjugate; method not named
[7] = molecular target: T1, recombinant cynomolgus monkey (Macaca …); assay: Table 14, Fab-ASO300 conjugate; method not named
[8] = molecular target: T2, recombinant human TfR1 (transferrin …); assay: ELISA on hTfR1, Fab conjugated to DMPK-targeting oligonucleotide, % normalized RFUs
[9] = molecular target: T1, recombinant cynomolgus monkey (Macaca …); assay: ELISA on cTfR1, Fab conjugated to DMPK-targeting oligonucleotide, % normalized RFUs
[10] = molecular target: T2, recombinant human TfR1 (transferrin …); assay: ELISA on hTfR1, Fab conjugated to DMPK-targeting oligonucleotide, % normalized RFUs; remark: listed apart in the source
[11] = molecular target: T1, recombinant cynomolgus monkey (Macaca …); assay: ELISA on cTfR1, Fab conjugated to DMPK-targeting oligonucleotide, % normalized RFUs

| Binder | Kd [1] [nM] | kon [1] [M⁻¹ s⁻¹] | Kd [2] [nM] | Kd [3] [nM] | EC50 [4] [nM] | EC50 [5] [nM] | DMPK oligo conjugate binding [6] [nM] | DMPK oligo conjugate binding [7] [nM] | EC50 [8] [nM] | EC50 [9] [nM] | EC50 [10] [nM] | EC50 [11] [nM] |
| --- | --- | --- | --- | --- | --- | --- | --- | --- | --- | --- | --- | --- |
| B1 | 0.436 | 447000 | 0.436 | 2.32 |  |  |  |  |  |  |  |  |
| B2 | 208 | 66700 | 202 | 12 |  |  |  |  |  |  |  |  |
| B3 |  |  |  |  | 2.9 | 7.8 | 2.71 | 4.1 | 3.6 | 5.7 |  |  |
| B4 |  |  |  |  | 2.8 | 4.7 | 2.22 | 5.12 | 3.3 | 5.8 |  |  |
| B5 |  |  |  |  | 1.7 | 2.1 | 1.18 | 1.85 |  |  | 1.7 | 2.1 |
| B6 |  |  |  |  | 2.2 | 2.9 | 1.14 | 2.26 |  |  | 2.2 | 2.9 |
| B7 | 0.768 | 166000 | 0.768 | 5.18 |  |  |  |  |  |  |  |  |
